Where two headings read alike, the source gives them in different places. Numbered stars: 1 amine (or outer) side, 2 acyl side, 3 side chain; on linkers, the order of the positions; unused ones are H or OH. Square brackets hold non-standard residues; d marks the D form. Ends that are not written are not given here. Peptide text beside a SMILES is read from it. Tyr(Me) = O-methyl-Tyr, COc1ccc(C[C@H](N[*:1])C(=O)[*:2])cc1; Phe(4-NO2) = N[C@@H](Cc1ccc([N+](=O)[O-])cc1)C(=O)O; Bta = N[C@@H](Cc1csc2ccccc12)C(=O)O; Phg = N[C@H](C(=O)O)c1ccccc1; Nle = CCCC[C@H](N)C(=O)O; Orn = NCCC[C@H](N)C(=O)O; Nva = CCC[C@H](N)C(=O)O
Experiments:
[1] = target: HLA-A*0201 (Homo sapiens, UniProt P04439, D140Y/D185E/D98H/E176V/E277Q/G131W/G231S/I119V/I121R/I166T/I218V/L300P/L318F/N151K/N90K/P208A/P217A/Q86G/Q94H/R138H/R169H/T345S); assay: Peptide binding using T2 cells; settings: half maximal binding of wild-type peptide relative to analog;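 also: Read-out is peptide-induced stabilization of HLA-A*0201 on the cell surface, reflecting mainly Kon at limiting peptide levels and both Kon and Koff at saturating levels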
Text: Thus, at limiting concentrations of peptide, it is a measurement of Kon mostly and at saturation levels of peptide it is a measurement of both Kon and Koff.
Thus, at limiting concentrations of peptide, this is a measurement of Kon mostly and at saturation levels of peptide that is a measurement of both Kon and Koff.

[2] = tested on: T cell lines against natural epitope SSX-241-49; assay: Cross-reactivity and functional avidity: IFN-gamma production by T cell lines raised against natural SSX-2 41-49; type: cell-based, HHD transgenic mice; settings: T cells raised to native peptide tested on analogs; footnote * and unit not given;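 also: analogs presented ex vivo by competent APCs to T cells specific for the non-mutated epitope, scored by lowest activating concentration, peak cytokine effect and concentration at that peak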
[3] = target: T1, HLA-A*0201 on T2 cells (human); assay: T2 cells, wild-type/analog half-maximal binding
T1 construct: whole, on cells; Class I MHC on the surface of T2 cells, detected with a fluorescent anti-A2 antibody; beta2-microglobulin is not mentioned for this assay; also called MHC class I (A2 allele)

[4] = target: T1, HLA-A*0201 on T2 cells; assay: T2 cells, wild-type/analog half-maximal binding; remark: listed apart in the source
[5] = target: T2, HLA-A*0201 class I monomer of the iTopia Epitope Discovery System; assay: iTopia affinity assay
T2 construct: also called A0201 restricted MHC Class 1 molecules; MHC monomer

[6] = target: T1, HLA-A*0201 on T2 cells; assay: T2 cells, wild-type/analog half-maximal binding; remark: listed apart in the source

CC[C@H](C)[C@H](NC(=O)[C@H](CCCCN)NC(=O)[C@H](CCC(=O)O)NC(=O)[C@H](CO)NC(=O)[C@@H](NC(=O)[C@@H](N)Cc1ccc(O)cc1)C(C)C)C(=O)N[C@@H](Cc1ccccc1)C(=O)N[C@@H](Cc1ccc(O)cc1)C(=O)N[C@H](C(=O)O)C(C)C [SSX2 41-49 (K41Y, A42V)]
Relative affinity (1/RA) [1]: 1.0
Cross-reactivity and fct avidity (native to analogs)* [2]: 0.1

KASEKIFYI-OH [SSX2 41-49(V49I)]
Relative affinity (1/RA) [1]: 1.0
Cross-reactivity and fct avidity (native to analogs)* [2]: 10

FVSQKIFYV [SSX2 41-49 (K41F, A42V, E44Q)]
Relative affinity (1/RA) [1]: 0.4
Cross-reactivity and fct avidity (native to analogs)* [2]: 10

FVSEKLFYV [SSX2 41-49 (K41F, A42V, I46L)]
Relative affinity (1/RA) [1]: 1.9
Cross-reactivity and fct avidity (native to analogs)* [2]: 3

CCCC[C@H](NC(=O)[C@H](CO)NC(=O)[C@@H](NC(=O)[C@@H](N)Cc1ccccc1)C(C)C)C(=O)N[C@@H](CCCCN)C(=O)N[C@H](C(=O)N[C@@H](Cc1ccccc1)C(=O)N[C@@H](Cc1ccc(O)cc1)C(=O)N[C@H](C(=O)O)C(C)C)[C@@H](C)CC [SSX2 41-49 (K41F, A42V, E44Nle), FVS(Nle)KIFYV] (H-FVS[Nle]KIFYV-OH)
Relative affinity (1/RA) [1]: 1.1
Cross-reactivity and fct avidity (native to analogs)* [2]: 10

FVSEKIFYM [SSX2 41-49 (K41F, A42V, V49M)]
Relative affinity (1/RA) [1]: 0.8
Cross-reactivity and fct avidity (native to analogs)* [2]: >10

WVSEKIFYV-OH [SSX2 41-49 (K41W, A42V)]
Relative affinity (1/RA) [1]: 3.0
Cross-reactivity and fct avidity (native to analogs)* [2]: 1

FISEKIFYV [SSX2 41-49 (K41F, A42I)]
Relative affinity (1/RA) [1]: 2.7
Cross-reactivity and fct avidity (native to analogs)* [2]: 0.3

CC[C@H](C)[C@H](NC(=O)[C@H](CCCCN)NC(=O)[C@H](CCC(=O)O)NC(=O)[C@H](CO)NC(=O)[C@H](C)NC(=O)[C@@H](N)c1ccccc1)C(=O)N[C@@H](Cc1ccccc1)C(=O)N[C@@H](Cc1ccc(O)cc1)C(=O)N[C@H](C(=O)O)C(C)C [SSX2 41-49 (K41(Phg))] (H-[Phg]ASEKIFYV-OH)
Relative affinity (1/RA) [1]: 2.5
Cross-reactivity and fct avidity (native to analogs)* [2]: 0.1

WLSEKIFYV-OH [SSX2 41-49 (K41W, A42L)]
Relative affinity (1/RA) [1]: 3.3
Cross-reactivity and fct avidity (native to analogs)* [2]: 0.3

FVSEKLFTV [SSX2 41-49 (K41F, A42V, I46L, Y48T)]
Relative affinity (1/RA) [1]: 2.6
Cross-reactivity and fct avidity (native to analogs)* [2]: >10

KISEKIFYV [SSX2 41-49 (A42I)]
Relative affinity (1/RA) [1]: 1.7
Cross-reactivity and fct avidity (native to analogs)* [2]: 3

CC[C@H](C)[C@H](NC(=O)[C@H](CCCCN)NC(=O)[C@H](CCC(=O)O)NC(=O)[C@H](CO)NC(=O)[C@@H](NC(=O)[C@@H](N)Cc1ccccc1)C(C)C)C(=O)N[C@@H](Cc1ccccc1)C(=O)N[C@H](C(=O)N[C@H](C(=O)O)C(C)C)c1ccccc1 [SSX2 41-49 (K41F, A42V, Y48Phg), FVSEKIF(Phg)V] (H-FVSEKIF[Phg]V-OH)
Relative affinity (1/RA) [1]: 2.5
Cross-reactivity and fct avidity (native to analogs)* [2]: >10

FVSDKIFYV [SSX2 41-49 (K41F, A42V, E44D)]
Relative affinity (1/RA) [1]: 1.1
Cross-reactivity and fct avidity (native to analogs)* [2]: >10

YMSEKIFYV-OH [SSX2 41-49 (K41Y, A42M)]
Relative affinity (1/RA) [1]: 0.6
Cross-reactivity and fct avidity (native to analogs)* [2]: 3

CCC[C@H](NC(=O)[C@H](CO)NC(=O)[C@@H](NC(=O)[C@@H](N)Cc1ccccc1)C(C)C)C(=O)N[C@@H](CCCCN)C(=O)N[C@H](C(=O)N[C@@H](Cc1ccccc1)C(=O)N[C@@H](Cc1ccc(O)cc1)C(=O)N[C@H](C(=O)O)C(C)C)[C@@H](C)CC [SSX2 41-49 (K41F, A42V, E44Nva), FVS(Nva)KIFYV] (H-FVS[Nva]KIFYV-OH)
Relative affinity (1/RA) [1]: 3.9
Cross-reactivity and fct avidity (native to analogs)* [2]: 3

B1: SSX2 41-49 (K41(Phe-4NO2)) (peptide)
peptide: [Phe(4-NO2)]ASEKIFYV
notes: also called para-nitrophenylalanine analog
Relative affinity (1/RA) [3]: 1.1 1/RA

FVSEK[Nva]FYV (also called FVSEK(Nva)FYV) [SSX2 41-49 (K41F, A42V, I46Nva)]
Relative affinity (1/RA) [4]: 2.4 1/RA

[Orn]LLQHLIGL [PRAME425-433 analog with Orn at P1]
fold difference of affinity (ED50) against the native peptide [5]: ≤ 3 fold

[Tyr(Me)]ASEKIFYV [SSX2 41-49 (K41(O-methyl Tyr))]
Relative affinity (1/RA) [3]: 0.8 1/RA

FVSEKIF[Phg]V (also called FVSEKIF(Phg)V) [SSX2 41-49 (K41F, A42V, Y48Phg)]
Relative affinity (1/RA) [4]: 2.5 1/RA

S[Nva]LQHLIGL [PRAME425-433 analog with Nva at P2]
fold reduction of affinity (ED50) against the native peptide [5]: ≤ 3 fold

FVS[Nle]KIFYV (also called FVS(Nle)KIFYV) [SSX2 41-49 (K41F, A42V, E44Nle)]
Relative affinity (1/RA) [4]: 1.1 1/RA

[Phg]ASEKIFYV [SSX2 41-49 (K41(Phg))]
Relative affinity (1/RA) [3]: 2.5 1/RA

SILQHLIGL [PRAME425-433 analog with Ile at P2]
fold reduction of affinity (ED50) against the native peptide [5]: ≤ 3 fold

FLLQHLIGL (also called Phe P1 analog; S425F) [PRAME425-433 analog with Phe at P1]
fold difference of affinity (ED50) against the native peptide [5]: ≤ 3 fold

YLLQHLIGL [PRAME425-433 analog with Tyr at P1]
fold difference of affinity (ED50) against the native peptide [5]: ≤ 3 fold

TLLQHLIGL [PRAME425-433 analog with Thr at P1]
fold difference of affinity (ED50) against the native peptide [5]: ≤ 3 fold

FVSEKIFYV [SSX2 41-49 (K41F, A42V)]
Relative affinity (1/RA) [6]: 3.1 1/RA

YASEKIFYV [SSX2 41-49 (K41Y)]
Relative affinity (1/RA) [3]: 1.7 1/RA

FVSEKLFSA [SSX2 41-49 (K41F, A42V, I46L, Y48S, V49A)]
Relative affinity (1/RA) [4]: 2.4 1/RA

FVSEKLFTV [SSX2 41-49 (K41F, A42V, I46L, Y48T)]
Relative affinity (1/RA) [4]: 2.6 1/RA

WVSEKIFYV [SSX2 41-49 (K41W, A42V)]
Relative affinity (1/RA) [6]: 3 1/RA

FVSEKIFSV [SSX2 41-49 (K41F, A42V, Y48S)]
Relative affinity (1/RA) [4]: 3.9 1/RA

FVSEKIFTV [SSX2 41-49 (K41F, A42V, Y48T)]
Relative affinity (1/RA) [4]: 3.8 1/RA

WMSEKIFYV [SSX2 41-49 (K41W, A42M)]
Relative affinity (1/RA) [6]: 2.9 1/RA

YMSEKIFYV [SSX2 41-49 (K41Y, A42M)]
Relative affinity (1/RA) [6]: 0.6 1/RA

FVSEKLFYV [SSX2 41-49 (K41F, A42V, I46L)]
Relative affinity (1/RA) [4]: 1.9 1/RA

FVSQKIFYV [SSX2 41-49 (K41F, A42V, E44Q)]
Relative affinity (1/RA) [4]: 0.4 1/RA

FVSEKIFFV [SSX2 41-49 (K41F, A42V, Y48F)]
Relative affinity (1/RA) [4]: 1.7 1/RA

FISEKIFYV [SSX2 41-49 (K41F, A42I)]
Relative affinity (1/RA) [6]: 2.7 1/RA

YLSEKIFYV [SSX2 41-49 (K41Y, A42L)]
Relative affinity (1/RA) [6]: 1.2 1/RA

FASEKIFYV [SSX2 41-49 (K41F)]
Relative affinity (1/RA) [3]: 1.5 1/RA

FVSDKIFYV [SSX2 41-49 (K41F, A42V, E44D)]
Relative affinity (1/RA) [4]: 1.1 1/RA

WLSEKIFYV [SSX2 41-49 (K41W, A42L)]
Relative affinity (1/RA) [6]: 3.3 1/RA

XLLQHLIGL (P1 = Hse (homoserine)) [PRAME425-433 analog with Hse at P1]
fold difference of affinity (ED50) against the native peptide [5]: ≤ 3 fold

[Bta]ASEKIFYV [SSX2 41-49 (K41(b-(3-benzothienyl)Ala))]
Relative affinity (1/RA) [3]: 0.6 1/RA

FVSEK[Nle]FYV (also called FVSEK(Nle)FYV) [SSX2 41-49 (K41F, A42V, I46Nle)]
Relative affinity (1/RA) [4]: 1.1 1/RA

FVS[Nva]KIFYV (also called FVS(Nva)KIFYV) [SSX2 41-49 (K41F, A42V, E44Nva)]
Relative affinity (1/RA) [4]: 3.9 1/RA

FLLQHLIG[Nle] (the second is probably S425T L433Nle) [PRAME425-433 S425F L433Nle analog]
fold reduction of ED50 against the native peptide [5]: > 4 fold

TMLQHLIG[Nle] [PRAME425-433 S425T L426M L433Nle analog]
binding result [5]: binds

FMLQHLIG[Nle] [PRAME425-433 analog with Phe at P1, Met at P2 and Nle at PΩ]
binding result [5]: binds

FVSEKIFXV (P8 = Phe(4-F), 4-fluorophenylalanine, also called FVSEKIF(Phe-4F)V) [SSX2 41-49 (K41F, A42V, Y48(Phe-4F))]
Relative affinity (1/RA) [4]: 1.4 1/RA
